According to patent publication US6649166:
Ends that are not written are not given here.

How the values were obtained:
[1] = target: HLA-DR molecule encoded by the allele HLA-DRB1*1501 (human)
[2] = target: HLA-DR molecule encoded by the allele HLA-DRB1*0301 (human); assay: competition ELISA, nonbiotinylated tracer peptide against its biotinylated form
[3] = target: HLA-DR molecule encoded by the allele HLA-DRB1*0101 (human); assay: competition ELISA, purified HLA-DR, biotinylated tracer; minus sign = loss
[4] = target: HLA-DR molecule encoded by the allele HLA-DRB1*0401 (human); assay: as above
[5] = target: HLA-DR molecule encoded by the allele HLA-DRB1*0301 (human); assay: as above
[6] = target: T1, HLA-DR molecule encoded by the allele HLA-DRB1*0701 (human); assay: as above
T1 chain 1: not shown
T1 chain 2: not shown

[7] = target: HLA-DR molecule encoded by the allele HLA-DRB1*1101 (human); assay: as above
[8] = target: T2, HLA-DR molecule encoded by the allele HLA-DRB3*0101 (human); assay: as above
T2 chain 1: not shown
T2 chain 2: not shown

[9] = target: T3, HLA-DR molecule encoded by the allele HLA-DRB1*1301 (human); assay: as above
T3 chain 1: not shown
T3 chain 2: not shown

[10] = target: T2, HLA-DR molecule encoded by the allele …; assay: competition ELISA, nonbiotinylated peptide against the biotinylated tracer of that DR molecule
[11] = target: T3, HLA-DR molecule encoded by the allele …; assay: as above
[12] = target: T3, HLA-DR molecule encoded by the allele …; assay: competition ELISA, nonbiotinylated tracer peptide against its biotinylated form

YFVAKMYFNLIDT (modifications not checked) [API m1 peptide with glycine 84 substituted by an alanine]
factor of increase in affinity [1]: 5 fold

AKTIAYDEEARGLE (not fully specified) [MT 2-16 (nonbiotinylated peptide)]
IC50 [2]: 100 nM

KMYFTLIDTKAYK (modifications not checked) [peptide N89T, analog of the peptide P85-97A]
relative activity (ratio of IC50 to P85-97A) [3]: 1 fold
relative activity (ratio of IC50 to P85-97A) [4]: 2 fold
relative activity (ratio of IC50 to P85-97A) [5]: 7 fold
relative activity (ratio of IC50 to P85-97A) [6]: 3 fold
relative activity (ratio of IC50 to P85-97A) [7]: 2 fold
relative activity (ratio of IC50 to P85-97A) [8]: 2 fold
relative activity (ratio of IC50 to P85-97A) [9]: 1 fold

TERVRLVTRHIYNREE (not fully specified) [B1 21-36 (nonbiotinylated peptide)]
IC50 [10]: 35000 nM
IC50 [11]: 275 nM
IC50 [12]: 320 nM
